B1: 5-hydroxytryptamine receptor 4 (Mus musculus), P97288 (parent)
chain: MDKLDANVSSNEGFRSVEKVVLLTFLAVVILMAILGNLLVMVAVCRDRQLRKIKTNYFIVSLAFADLLVSVLVMPFGAIELVQDIWAYGEMFCLVRTSLDVLLTTASIFHLCCISLDRYYAICCQPLVYRNKMTPLRIALMLGGCWVLPMFISFLPIMQGWNNIGIVDVIEKRKFSHNSNSTWCVFMVNKPYAITCSVVAFYIPFLLMVLAYYRIYVTAKEHAQQIQMLQRAGATSESRPQPADQHSTHRMRTETKAAKTLCVIMGCFCFCWAPFFVTNIVDPFIDYTVPEQVWTAFLWLGYINSGLNPFLYAFLNKSFRRAFLIILCCDDERYKRPPILGQTVPCSTTTINGSTHVLRDTVECGGQWESRCHLTATSPLVAAQPSDT

Experiments:
grk5_human GRK5, P34947 [1] = variants of: B1; details: with grk5_human GRK5, P34947
grk5_human GRK5, P34947 [2] = variants of: B1; details: with grk5_human GRK5, P34947; remark: listed apart in the source

Sequence of grk5_human GRK5, P34947 (P34947 whole entry, looked up): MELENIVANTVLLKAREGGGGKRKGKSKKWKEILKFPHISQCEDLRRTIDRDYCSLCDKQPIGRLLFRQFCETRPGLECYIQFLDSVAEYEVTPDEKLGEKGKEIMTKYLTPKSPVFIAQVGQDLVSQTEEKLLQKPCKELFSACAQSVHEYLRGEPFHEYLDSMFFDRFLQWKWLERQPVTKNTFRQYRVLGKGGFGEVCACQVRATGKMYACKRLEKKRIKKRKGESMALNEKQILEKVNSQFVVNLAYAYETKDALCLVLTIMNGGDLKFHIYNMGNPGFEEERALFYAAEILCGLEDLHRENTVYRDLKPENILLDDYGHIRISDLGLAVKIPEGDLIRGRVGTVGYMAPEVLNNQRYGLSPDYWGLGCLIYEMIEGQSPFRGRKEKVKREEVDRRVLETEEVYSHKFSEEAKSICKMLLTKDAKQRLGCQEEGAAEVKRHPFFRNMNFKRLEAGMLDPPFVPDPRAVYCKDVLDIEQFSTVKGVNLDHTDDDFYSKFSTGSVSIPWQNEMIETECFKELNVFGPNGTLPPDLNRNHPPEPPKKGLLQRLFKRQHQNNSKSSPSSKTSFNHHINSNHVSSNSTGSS

## D331A
grk5_human GRK5, P34947 [1]
  effect of a mutation on the interaction: decreasing interaction
grk5_human GRK5, P34947 [2]
  effect of a mutation on the interaction: disrupting interaction

## D330A
grk5_human GRK5, P34947 [1]
  effect of a mutation on the interaction: decreasing interaction
grk5_human GRK5, P34947 [2]
  effect of a mutation on the interaction: disrupting interaction

## E332A
grk5_human GRK5, P34947 [1]
  effect of a mutation on the interaction: decreasing interaction
grk5_human GRK5, P34947 [2]
  effect of a mutation on the interaction: disrupting interaction
